Test results as given in PMC9635645.

Target: GAL4 DBD-BEAF-32B (Drosophila)
Test: two-hybrid; GAL4 AD fusions (pOAD) against GAL4 DBD fusions (pOBD2) in yeast; 50 to 100 colonies with both plasmids scored for growth on medium lacking adenine and histidine, with X-α-Gal

Chain of GAL4 DBD-BEAF-32B (Drosophila) (main, as listed by the source): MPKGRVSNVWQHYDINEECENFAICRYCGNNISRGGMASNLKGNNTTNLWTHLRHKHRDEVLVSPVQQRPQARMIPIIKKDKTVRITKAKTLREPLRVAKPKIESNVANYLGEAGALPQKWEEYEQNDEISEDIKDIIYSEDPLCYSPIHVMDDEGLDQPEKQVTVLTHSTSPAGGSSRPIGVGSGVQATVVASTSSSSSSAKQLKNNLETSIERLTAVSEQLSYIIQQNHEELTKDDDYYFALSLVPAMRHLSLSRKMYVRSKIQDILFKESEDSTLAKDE

With GAL4 AD-Pbro BD4–5 (domain or fragment) the % of Y2H colonies expressing the reporter genes was 20%.
